Source: patent EP4471049A1 (Zealand Pharma A/S, priority 2023, dated 2024)
Values belong to the molecule of their own block, whether it stands above or below them. *1 amine or outer side, *2 acyl side, *3 side chain or, on linkers, in order; H or OH if unused. Where a SMILES comes first, the peptide text is derived from it. Bridges are numbered along the chain shown (N, C = ends). Primed or numbered codes have the meaning given here. Where no end group is shown, it is not given here. [ ]: non-standard residue; d: D form. 4‑Aminomethyl‑phenylacetyl = 4-aminomethyl-phenylacetyl unit, its amine closes the lactam, O=C(Cc1ccc(CN[*:1])cc1)[*:2]; Q(pyrrolidin)(3) = Gln whose side-chain amide N is in a pyrrolidine ring, O=C(CC[C@H](N[*:1])C(=O)[*:2])N1CCCC1; 2Nal = N[C@@H](Cc1ccc2ccccc2c1)C(=O)O; AEF = NCCOc1ccc(C[C@H](N)C(=O)O)cc1; X1 = O=C(Cc1ccc(CN[*:1])cc1)[*:2]; 3Pal = N[C@@H](Cc1cccnc1)C(=O)O; Cit = NC(=O)NCCC[C@H](N)C(=O)O; αMeL = CC(C)C[C@](C)(N)C(=O)O; NMeS = CN[C@@H](CO)C(=O)O; Orn = NCCC[C@H](N)C(=O)O; Q(Me) = not defined here; Dab = NCC[C@H](N)C(=O)O; βAla = NCCC(=O)O

How the values were obtained:
[1] = Peptide stability in simulated intestinal fluid (SIF); assay type: in vitro ADME; conditions: pig, simulated intestinal fluid (SIF) with porcine pancreatin, 37 °C, pH 6.8, porcine pancreatin 10 g/L, 10 µM; for remaining at 4 h, 10 µM: read-out: SIF (% remaining 4 h)
Protocol: SGF was prepared by dissolving sodium chloride (0.2 g) in 50 mL of water. A volume of 0.7 mL of 10 M HCl was added to adjust the pH of the solution to 1.2 and the volume made up to 100 mL with water. […] SIF was prepared by dissolving monobasic potassium phosphate (0.68 g) in 50 mL of water and adjusting the pH to 6.8 with 1 M NaOH. The volume was subsequently made up to 100 mL with water. 200 mg porcine pancreatin (P1625, Sigma Aldrich) was gently dissolved into 20 mL preheated (37 °C) solution (10 g/L) immediately prior to the incubation.
The incubation was performed at 37 °C with gentle shaking. […] After the last timepoint, the sampling plate was mixed for 10 min on a shaking table and centrifuged 10 min at 2200 g. 70 µL resulting supernatant was diluted with 150 µL water, mixed and centrifugated before analysis by liquid chromatography high resolution mass spectrometry. […] Percent remaining at each timepoint was calculated relative to timepoint zero based on absolute peak areas.
Compounds with a SIF stability (after 4 h) above 70% are considered highly SIF stable.

[2] = molecular target: T1, human IL-23R (Homo sapiens, UniProt Q5VWK5); assay: biochemical
T1 sequence (Q5VWK5 22-629): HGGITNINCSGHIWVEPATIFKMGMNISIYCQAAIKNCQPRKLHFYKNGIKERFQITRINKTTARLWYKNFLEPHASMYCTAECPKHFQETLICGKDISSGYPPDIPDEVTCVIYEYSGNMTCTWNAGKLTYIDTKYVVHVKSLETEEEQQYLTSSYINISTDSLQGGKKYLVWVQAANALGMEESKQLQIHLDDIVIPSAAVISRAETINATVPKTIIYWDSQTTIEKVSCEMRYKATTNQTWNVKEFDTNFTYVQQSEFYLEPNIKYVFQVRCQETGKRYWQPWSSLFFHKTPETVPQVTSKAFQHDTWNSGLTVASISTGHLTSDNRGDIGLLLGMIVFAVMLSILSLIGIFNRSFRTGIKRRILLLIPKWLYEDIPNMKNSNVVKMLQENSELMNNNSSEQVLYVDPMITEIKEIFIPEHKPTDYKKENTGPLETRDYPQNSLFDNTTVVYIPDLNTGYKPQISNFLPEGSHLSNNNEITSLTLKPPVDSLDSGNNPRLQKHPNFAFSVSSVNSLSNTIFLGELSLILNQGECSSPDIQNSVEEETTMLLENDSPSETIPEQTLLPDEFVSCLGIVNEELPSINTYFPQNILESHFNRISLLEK
In short: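 BRET displacement of a TAMRA-labelled reference compound from N-terminal Nanoluc-IL-23R fusion protein in membranes from stably transfected HEK293 cells. Incubation 2 h at room temperature, then Nanoluc substrate was added and the TAMRA/Nanoluc ratio read. IC50 and maximal displacement came from 4-parameter logistic fits.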

[3] = molecular target: T2, Nluc-IL23R fusion protein (human, UniProt Q5VWK5 22-629); assay: BRET competition vs TAMRA-labelled peptide, Nluc-IL23R membranes
T2 construct: range 22-629; expressed with a secretion signal in HEK293 cells; used as crude membrane preparation; also called hIL-23R; human IL-23R; not shown: Nanoluc protein from the expression plasmid N1371 (Promega), N-terminal of IL-23R
T2 sequence (looked up): T1 sequence (Q5VWK5 22-629)

Molecule: CNC(=O)[C@H](Cc1cccnc1)NC(=O)[C@H](CO)NC(=O)[C@@H]1CCC(=O)NCc2ccc(cc2)CC(=O)N[C@@H](CO)C(=O)N[C@H]2CCC(=O)NCC[C@H](NC(=O)[C@H](CCC(N)=O)NC(=O)[C@H](Cc3c[nH]c4ccccc34)NC2=O)C(=O)N[C@@H](Cc2ccc(OCCN)cc2)C(=O)N[C@@H](Cc2ccc3ccccc3c2)C(=O)N[C@@](C)(CC(C)C)C(=O)N1 [Compound 31, [4-Aminomethyl-phenylacetyl](1c)*SE(2c)WQ[Dab](2c)[Y(2-aminoethoxy)][2-Nal][2-Me-Leu]E(1c)S[3-(3-Pyridyl)-Ala]-[NHMe]] ([X1]SEWQ[Dab][AEF][2Nal][αMeL]ES[3Pal]-NHMe; lactam 3-6, N-10)
remaining at 4 h, 10 µM [1]: 41%
% displacement (hIL-23R binding) [2]: 97%
IC50 [2]: 0.012 nM

Molecule: CNC(=O)[C@H](Cc1cccnc1)NC(=O)[C@H](CCN)NC(=O)[C@@H]1CCC(=O)NCc2ccc(cc2)CC(=O)N[C@@H](C)C(=O)N[C@H]2CCC(=O)NCC[C@H](NC(=O)[C@H](CCC(N)=O)NC(=O)[C@H](Cc3c[nH]c4ccccc34)NC2=O)C(=O)N[C@@H](CCc2ccccc2)C(=O)N[C@@H](Cc2ccc3ccccc3c2)C(=O)NC(C)(C)C(=O)N1 [Compound 41, [4-Aminomethyl-phenylacetyl](1c)*AE(2c)WQ[Dab](2c)[hPhe][2-Nal][Aib]E(1c)[Dab][3-(3-Pyridyl)-Ala]-[NHMe]]
remaining at 1 h, 10 µM ([1]; 1 h): 100%
remaining at 4 h, 10 µM [1]: 95%
% displacement (hIL-23R binding) [2]: 104%
IC50 [2]: 0.28 nM

B1: Compound 40 (peptide)
peptide: [4‑Aminomethyl‑phenylacetyl]AEWQ[Dab][AEF][2Nal][αMeL]ES[3Pal]-NHMe
modifications: lactam N-10, 3-6
SMILES: CNC(=O)[C@H](Cc1cccnc1)NC(=O)[C@H](CO)NC(=O)[C@@H]1CCC(=O)NCc2ccc(cc2)CC(=O)N[C@@H](C)C(=O)N[C@H]2CCC(=O)NCC[C@H](NC(=O)[C@H](CCC(N)=O)NC(=O)[C@H](Cc3c[nH]c4ccccc34)NC2=O)C(=O)N[C@@H](Cc2ccc(OCCN)cc2)C(=O)N[C@@H](Cc2ccc3ccccc3c2)C(=O)N[C@@](C)(CC(C)C)C(=O)N1
% displacement (hIL-23R binding) [3]: 100%

Molecule: [3Pal][βAla]SCWQC[AEF][2Nal][αMeL]E[dR]-NH2 (lactam N-11; linker 4-7 via 1,3‑dithio‑propan‑2‑one) [Compound 2]
% displacement (hIL-23R binding) [3]: 103%

Molecule: [4‑Aminomethyl‑phenylacetyl]SEW[Q(Me)][Dab][AEF][2Nal][αMeL]E[Dab][3Pal]-NHMe (lactam N-10, 3-6; reading uncertain) [Compound 29]
% displacement (hIL-23R binding) [3]: 96%
IC50 [3]: 0.011 nM

Molecule: [4‑Aminomethyl‑phenylacetyl]SEW[Dab](Ac)[Dab][AEF][2Nal][αMeL]E[Dab][3Pal]-NHMe (lactam (positions not given here); lactam 3-6; not fully specified (bridges)) [Compound 25]
% displacement (hIL-23R binding) [3]: 93%
IC50 [3]: 0.011 nM

Molecule: [4‑Aminomethyl‑phenylacetyl]SEW[Cit][Dab][AEF][2Nal][αMeL]E[Dab][3Pal]-NHMe (lactam (positions not given here); lactam 3-6; not fully specified (bridges)) [Compound 26]
% displacement (hIL-23R binding) [3]: 95%

Molecule: [4‑Aminomethyl‑phenylacetyl]SEWQ[Dab][AEF][2Nal][αMeL]ES[3Pal]-NHMe (lactam N-10, 3-6) [Compound 31]
% displacement (hIL-23R binding) [3]: 97%

B4: Compound 33 (peptide)
peptide: [4‑Aminomethyl‑phenylacetyl]SEWQ[Dab][AEF][2Nal][αMeL]EQ[3Pal]-NHMe
modifications: lactam N-10, 3-6
SMILES: CNC(=O)[C@H](Cc1cccnc1)NC(=O)[C@H](CCC(N)=O)NC(=O)[C@@H]1CCC(=O)NCc2ccc(cc2)CC(=O)N[C@@H](CO)C(=O)N[C@H]2CCC(=O)NCC[C@H](NC(=O)[C@H](CCC(N)=O)NC(=O)[C@H](Cc3c[nH]c4ccccc34)NC2=O)C(=O)N[C@@H](Cc2ccc(OCCN)cc2)C(=O)N[C@@H](Cc2ccc3ccccc3c2)C(=O)N[C@@](C)(CC(C)C)C(=O)N1
% displacement (hIL-23R binding) [3]: 92%

B6: Compound 28 (peptide)
peptide: [4‑Aminomethyl‑phenylacetyl]SEW[Orn][Dab][AEF][2Nal][αMeL]E[Dab][3Pal]-NHMe
modifications: lactam N-10, 3-6
SMILES: CNC(=O)[C@H](Cc1cccnc1)NC(=O)[C@H](CCN)NC(=O)[C@@H]1CCC(=O)NCc2ccc(cc2)CC(=O)N[C@@H](CO)C(=O)N[C@H]2CCC(=O)NCC[C@H](NC(=O)[C@H](CCCN)NC(=O)[C@H](Cc3c[nH]c4ccccc34)NC2=O)C(=O)N[C@@H](Cc2ccc(OCCN)cc2)C(=O)N[C@@H](Cc2ccc3ccccc3c2)C(=O)N[C@@](C)(CC(C)C)C(=O)N1
% displacement (hIL-23R binding) [3]: 97%
IC50 [3]: 0.011 nM

Molecule: [βAla][3Pal]SCWQC[AEF][2Nal][αMeL]E[dR]-NH2 (lactam N-11; linker 4-7 via 1,3‑dithio‑propan‑2‑one) [Compound 1]
% displacement (hIL-23R binding) [3]: 105%

The next lines start with the values.

% displacement (hIL-23R binding) [3]: 97%
B2: Compound 24 (peptide)
peptide: [4‑Aminomethyl‑phenylacetyl]SEWK(Ac)[Dab][AEF][2Nal][αMeL]E[Dab][3Pal]-NHMe
modifications: lactam N-10, 3-6
SMILES: CNC(=O)[C@H](Cc1cccnc1)NC(=O)[C@H](CCN)NC(=O)[C@@H]1CCC(=O)NCc2ccc(cc2)CC(=O)N[C@@H](CO)C(=O)N[C@H]2CCC(=O)NCC[C@H](NC(=O)[C@H](CCCCNC(C)=O)NC(=O)[C@H](Cc3c[nH]c4ccccc34)NC2=O)C(=O)N[C@@H](Cc2ccc(OCCN)cc2)C(=O)N[C@@H](Cc2ccc3ccccc3c2)C(=O)N[C@@](C)(CC(C)C)C(=O)N1

% displacement (hIL-23R binding) [3]: 90%
B3: Compound 34 (peptide)
peptide: [4‑Aminomethyl‑phenylacetyl]SEWQ[Dab][AEF][2Nal][αMeL]EH[3Pal]-NHMe
modifications: lactam N-10, 3-6
SMILES: CNC(=O)[C@H](Cc1cccnc1)NC(=O)[C@H](Cc1c[nH]cn1)NC(=O)[C@@H]1CCC(=O)NCc2ccc(cc2)CC(=O)N[C@@H](CO)C(=O)N[C@H]2CCC(=O)NCC[C@H](NC(=O)[C@H](CCC(N)=O)NC(=O)[C@H](Cc3c[nH]c4ccccc34)NC2=O)C(=O)N[C@@H](Cc2ccc(OCCN)cc2)C(=O)N[C@@H](Cc2ccc3ccccc3c2)C(=O)N[C@@](C)(CC(C)C)C(=O)N1

% displacement (hIL-23R binding) [3]: 104%
Molecule: [4‑Aminomethyl‑phenylacetyl]SEW[Q(2Me)][Dab][AEF][2Nal][αMeL]E[Dab][3Pal]-NHMe (lactam N-10, 3-6) [Compound 30]

% displacement (hIL-23R binding) [3]: 97%
IC50 [3]: 0.017 nM
Molecule: [4‑Aminomethyl‑phenylacetyl]SEW[Q(pyrrolidin)(3)][Dab][AEF][2Nal][αMeL]E[Dab][3Pal]-NHMe (lactam N-10, 3-6) [Compound 27]

% displacement (hIL-23R binding) [3]: 102%
B5: Ref 141 (peptide)
peptide: [4‑Aminomethyl‑phenylacetyl][NMeS]CWQC[AEF][2Nal][αMeL]E[Dab]-NH2
modifications: lactam N-10; bridge 3-6; not fully specified (bridges); printed as [4-Aminomethyl-phenylacetyl](1c)*[N-Me-Ser]C(2a)WQC(2a)[Y(2-aminoethoxy)][2-Nal][2-Me-Leu]E(1c)[Dab]-[NH2]
